Measurements as given in patent US20180044681A1.

Target: EpCAM (Epithelial Cell Adhesion Molecule) (UniProt P16422)
Assay: binding to EpCAM-expressing cells; method not stated

Sequence of EpCAM (Epithelial Cell Adhesion Molecule) (P16422 24-314 limits assumed): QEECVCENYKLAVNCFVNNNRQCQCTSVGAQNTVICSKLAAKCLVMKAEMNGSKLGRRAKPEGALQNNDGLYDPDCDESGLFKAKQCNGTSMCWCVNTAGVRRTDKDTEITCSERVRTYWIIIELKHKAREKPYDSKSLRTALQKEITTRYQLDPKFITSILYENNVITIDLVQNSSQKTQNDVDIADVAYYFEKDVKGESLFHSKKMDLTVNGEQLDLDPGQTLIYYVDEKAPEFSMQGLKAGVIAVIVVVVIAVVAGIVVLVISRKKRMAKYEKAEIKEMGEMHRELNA

Kd: 2.2 nM
Substance: HEA125 antibody
